Experimental data as given in publication doi:10.1101/2025.05.22.655451.

Molecular target: HA N-terminally tagged C99 (APP C-terminal fragment C99) (UniProt P05067)
Assay: proximity ligation

Sequence of HA N-terminally tagged C99 (APP C-terminal fragment C99) (P05067 672-770): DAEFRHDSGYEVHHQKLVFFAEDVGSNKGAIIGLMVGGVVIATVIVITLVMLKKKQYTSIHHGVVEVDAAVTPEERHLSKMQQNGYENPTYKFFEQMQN

| Substance | PLA+ spots per cell (PLA+ spots per cell) |
| --- | --- |
| Chimera of the TM of MT1-MMP and the IC of MT5-MMP | 25 |
| MT5-MMP TM/IC (transmembrane and intracellular domains, extracellular domains depleted) (from UniProt Q9Y5R2 53-645) (domain or fragment) | 25 |
| MT5-MMP TM/IC with alanine substitutions of the C-terminal PDZ-binding EWV motif (domain or fragment) | 21 |
